One experiment concerns the target T1, Mouse B7-H3 (mouse, UniProt Q8VE98 29-244, limits assumed).
T1 construct: also called mouse B7-H3 protein
T1 sequence (looked up): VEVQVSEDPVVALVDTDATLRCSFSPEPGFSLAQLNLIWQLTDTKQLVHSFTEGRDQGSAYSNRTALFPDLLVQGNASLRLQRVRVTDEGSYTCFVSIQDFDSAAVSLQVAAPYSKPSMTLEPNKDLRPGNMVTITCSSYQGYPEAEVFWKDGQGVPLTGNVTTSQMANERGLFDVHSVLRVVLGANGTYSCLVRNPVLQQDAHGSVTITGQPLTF
The experiment is described as follows: surface plasmon resonance. For orientation: SPR reads the build-up and loss of mass on a sensor chip optically.

Another experiment deals with T2, Human B7-H3 (human, UniProt Q5ZPR3 29-461, limits assumed).
T2 construct: also called human B7-H3 protein; CD276
T2 sequence (looked up): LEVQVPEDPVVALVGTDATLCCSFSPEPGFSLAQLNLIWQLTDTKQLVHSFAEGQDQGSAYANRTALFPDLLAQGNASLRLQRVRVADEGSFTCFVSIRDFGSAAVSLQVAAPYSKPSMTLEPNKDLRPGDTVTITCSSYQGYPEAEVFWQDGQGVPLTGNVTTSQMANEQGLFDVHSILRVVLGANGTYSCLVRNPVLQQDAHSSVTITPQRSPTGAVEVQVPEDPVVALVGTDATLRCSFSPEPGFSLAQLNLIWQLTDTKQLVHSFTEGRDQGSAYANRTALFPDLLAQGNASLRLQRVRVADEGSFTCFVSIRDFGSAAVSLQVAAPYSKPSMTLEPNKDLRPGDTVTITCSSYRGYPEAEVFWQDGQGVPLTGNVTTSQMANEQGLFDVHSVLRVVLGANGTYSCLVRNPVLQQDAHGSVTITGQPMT
The experiment is described as follows: surface plasmon resonance.

From US20250320269A1 (ALBERT EINSTEIN COLLEGE OF MEDICINE, published 2025) come the findings set out here.

B1: 23B2 mAb (antibody, V domains shown)
VH: QVQLQQPGAELVKPGASVKLSCKASGYTFTSYWMHWVKQRPGQGLEWIGMIHPNSGSTNYNEKFKSKATLTVDKSSSTAYMQLSSLTSEDSAVYYCARESRQLDYWGQGTTLTVSS
VL: QIVLTQSPAIMSASPGEKVTMTCSASSSISYMHWYQQKPGTSPKRWIYDTSKLASGVPARFSGSGSGTSYSLTISSMEAEDAATYYCHQRSSYPLTFGAGTKLELK
notes: Mouse hybridoma mAb, IgG1 with kappa chain; also called 231B2
Consider B1, for which the Kd with Mouse B7-H3 was 10.2 nM; with Human B7-H3, 11.1 nM.

B2: 8B12 mAb (antibody, V domains shown)
VH: QVQLQQPGAELVKPGASVKMSCKASGYTFTSYWITWVKQRPGQGLEWIGDIYPGSGSTNYNEKFKSKATLTVDTSSSTAYMQLSSLTSEDSAVYYCARGGTRFSPFAYWGQGTLVTVSA
VL: DVLMTQTPLSLPVSLGDQASISCRSSQSIVHSNGNTYLEWYLQKPGQSPKLLIYKVSNRFSGVPDRFSGSGSGTDFTLKISRVEAEDLGVYYCFQGSHVPWTFGGGTKLEIKR
notes: Mouse hybridoma mAb, IgG3 with kappa chain; also called 8K12; 81812
As for B2, the Kd in the experiment with Mouse B7-H3 came out at 4.01 nM; with Human B7-H3, 0.32 nM.

B3: 12B4 mAb (antibody, V domains shown)
VH: QVQLQQPGAELVKPGASVKLSCKASGYTFTSYWMHWVKQRPGQGLEWIGMIHPNSGSTNYNEKFKSKATLTVDKSSSTAYMQLSSLTSEDSAVYYCARYYYGSSYAMDYWGQGTSVTVS
VL: QIVLTQSPAIMSASPGEKVTITCSASSSVSYMHWFQQKPGTSPKLWIYSTSNLASGVPARFSGSGSGTSYSLTISRMEAEDAATYYCQQRSSYPYTFGGGTKLEIKR
notes: Mouse hybridoma mAb, IgG3 with kappa chain; also called 124; 1214
For the molecule B3, the Kd with Mouse B7-H3 was determined as 1.71 nM; in the experiment with Human B7-H3 it was 5.62 nM.

B4: 24D12 mAb (antibody, V domains shown)
VH: QVQLQQPGAELVKPGASVKLSCKASGYTFTSYWMHWVKQRPGQGLEWIGMIHPNSGSTNYNEKFKSKATLTVDKSSSTAYMQLSSLTSEDSAVYYCANYYGTNVWGTGTTVTVS
VL: DIVLTQSPASLAVSLGQRATISYRASKSVSTSGYSYMHWNQQKPGQPPRLLIYLVSNLESGVPARFSGSGSGTDFTLNIHPVEEEDAATYYCQHIREAYTFGRG
For B4, the figures for the Kd with Mouse B7-H3 and with Human B7-H3 were 1.76 nM and 4.51 nM, respectively.

B5: 1G5 mAb (antibody, V domains shown)
VH: QVQLQQPGAELVKPGASVKLSCKASGYTFTSYWMHWVKQRPGQGLEWIGMIHPNSGSTNYNEKFKSKATLTVDKSSSTAYMQLSSLTSEDSAVYYCARGGYFDYWGQGTTLTVSS
VL: DIVMTQSQKFMSTSVGDRVSVTCKASQNVGTNVAWYQQKPGQSPKALIYSASYRYSGVPDRFTGSGSGTDFTLTISNVQSEDLAEYFCQQYNSYPYTFGGGTKLEIKR
notes: Mouse hybridoma mAb, IgG3 with kappa chain
Turning to B5, the Kd turned out to be 0.81 nM with Mouse B7-H3 and 4.86 nM with Human B7-H3.

B6: 15F9 mAb (antibody, V domains shown)
VH: QVQLQQPGAELVKPGASVKLSCKASGYTFTNYWMHWVKQRPGQGLEWIGMIHPNSGSTNYNEKFKSKATLTVDKSSSTAYMQLSSLTSEDSAVYYCARRGDGDYWGQGTTLTVSS
VL: DIQMTRHPSSLSASMGERVSLTCRASQEISGYLSWLQQKPDGTIKRLIYAASTLDSGVPKRFSGSRSGSDYSLTISSLESEDFADYYCLQYASYPYTFGGGTKLEI
notes: as for B5
For the molecule B6, the Kd with Mouse B7-H3 came to 1.76 nM; with Human B7-H3, 4.51 nM.

What is called Kd is the free concentration of one partner at which half of the binding sites on the other are occupied at equilibrium, for simple one-to-one binding.
